Where two headings read alike, the source gives them in different places.
Experiments:
[1] = Temperature- and urea-dependent fluorescence landscapes of fluorescent conjugates (Roche LightCycler); assay type: binding; parameters: key: y, yes; n, no; settings: fluorescent response to urea
Experimental: We constructed 20 single cysteine mutants in csUBP7, exploring 7 endosteric, 12 peristeric, and 1 allosteric position (FIG. 9). At each position we attached the Prodan-derived fluorophores Acrylodan and Badan, which differ by one methylene group in their thiol-reactive linker. The fluorescent responses of these conjugates was determined initially as a function of urea concentration and temperature (FIG. 10). […] The ligand dependence of the emission spectra shapes was determined for these conjugates (Table 8).
Determination of temperature- and ligand-dependent fluorescence landscapes. […] Urea concentrations were varied from 0-4.8 M in 20 mM KCl, 20 mM MOPS (pH 7.4). […] Temperatures were advanced in 1K steps.
(§1) Ratiometric analysis of urea binding. […] 2
(§2) For a single urea-binding site, the fractional saturation is given by
(§3) [formula] where [L] is the ligand (urea) concentration and Kd the dissociation constant, ^trueKd for ytrue.
To obtain the temperature dependence of the binding reaction, the Kd values of all the individually determined isotherms were fit the Gibbs-Hemholtz equation (Layton and Hellinga, 2010, Biochemistry, 49, 10831-41):
[formula] where ΔGb^•(T) is the standard free energy of binding at 1 M ligand at temperature T,
[formula] Δ^refHb^• and Δ^refSb^• the molar enthalpy and entropy of binding, respectively, at the reference temperature, Tref, and ΔCp,b the heat capacity of the binding reaction.

[2] = Urea titration of emission intensity spectra (Nanodrop3300) with ratiometric analysis, singly labeled conjugates; assay type: binding; parameters: key to Acrylodan Intensity / Badan Intensity: +, increases in response to urea; −, decreases; 0, no change; key to Acrylodan Shape / Badan Shape: m, monochromatic; d, dichromatic (i.e. spectral shape changes); 0, no change; settings: for Kd: urea
Description: Determination of emission intensity spectra.
as §1, §2, §3
[formula] where ^appIλ2 and ^satIλ2 are the emission intensities of the monochromatic signal at wavelength λ2 of the ligand-free and ligand-bound protein, respectively.

Row | Molecule | Response ([1]; Acrylodan conjugate) | Response ([1]; Badan conjugate) | other results
1 | bsUBP3 T77C: bsUBP3 77C cysteine mutant (SEQ ID NO: 44), tested as Acrylodan conjugate (conjugate, Acrylodan conjugate; bsUBP3_77C (77C substitution mutant with signal peptide replaced with M and a GGSHHHHHH at C-terminus)) MKVGILHSLSGTMAISEVSVHDAELIAIQEINQKGGVLGKKLEPVVEDGASDWPTYAEKMRKLLQQDKVAAVFGGWCSASRKAMLPVVEQNNGLLFYPVQYEGMETSPNIFYTGATTNQQIVPAVDWLLKNKGKKFFLIGSDYVFPRTANKIIKAQVKAGGGEIAGEEYTPLGHTNYSTLVSKIKEKQPDVIFNTLNGDSNVAFFKQLKDAGISADDMPVMSASVAEEEIRGIGPDVLKGHYAVWNYFQTTNTSENQTFVKNYKKMNGDSRVTSDPIEAGYNAVYLWAAAVEKAKSFDVDKVKKAADGISFKAPGGTVKIDGDTQHLYKTVRIGQITGDGQFKEVWNSGEPVKPDPYLKTYDWAKGLSKGGSHHHHHH | y |  | 
2 | bsUBP3 L172C: bsUBP3 172C cysteine mutant (SEQ ID NO: 48), tested as Acrylodan conjugate (conjugate, Acrylodan conjugate; bsUBP3_172C (172C substitution mutant with signal peptide replaced with M and a GGSHHHHHH at C-terminus)) MKVGILHSLSGTMAISEVSVHDAELIAIQEINQKGGVLGKKLEPVVEDGASDWPTYAEKMRKLLQQDKVAAVFGGWTSASRKAMLPVVEQNNGLLFYPVQYEGMETSPNIFYTGATTNQQIVPAVDWLLKNKGKKFFLIGSDYVFPRTANKIIKAQVKAGGGEIAGEEYTPCGHTNYSTLVSKIKEKQPDVIFNTLNGDSNVAFFKQLKDAGISADDMPVMSASVAEEEIRGIGPDVLKGHYAVWNYFQTTNTSENQTFVKNYKKMNGDSRVTSDPIEAGYNAVYLWAAAVEKAKSFDVDKVKKAADGISFKAPGGTVKIDGDTQHLYKTVRIGQITGDGQFKEVWNSGEPVKPDPYLKTYDWAKGLSKGGSHHHHHH | y |  | 
3 | bsUBP3 A79C: bsUBP3 79C cysteine mutant (SEQ ID NO: 46), tested as Acrylodan conjugate (conjugate, Acrylodan conjugate; bsUBP3_79C (79C substitution mutant with signal peptide replaced with M and a GGSHHHHHH at C-terminus)) MKVGILHSLSGTMAISEVSVHDAELIAIQEINQKGGVLGKKLEPVVEDGASDWPTYAEKMRKLLQQDKVAAVFGGWTSCSRKAMLPVVEQNNGLLFYPVQYEGMETSPNIFYTGATTNQQIVPAVDWLLKNKGKKFFLIGSDYVFPRTANKIIKAQVKAGGGEIAGEEYTPLGHTNYSTLVSKIKEKQPDVIFNTLNGDSNVAFFKQLKDAGISADDMPVMSASVAEEEIRGIGPDVLKGHYAVWNYFQTTNTSENQTFVKNYKKMNGDSRVTSDPIEAGYNAVYLWAAAVEKAKSFDVDKVKKAADGISFKAPGGTVKIDGDTQHLYKTVRIGQITGDGQFKEVWNSGEPVKPDPYLKTYDWAKGLSKGGSHHHHHH | y |  | 
4 | csUBP7 R95C: csUBP7 95C cysteine mutant (SEQ ID NO: 32), tested as Acrylodan and Badan conjugates (conjugate, Acrylodan or Badan conjugate; csUBP7_95C (95C substitution mutant with signal peptide replaced with M and a GGSHHHHHH at C-terminus, and also comprising a C89A substitution)) MSSSESEKEKSEETIKVGILHSLSGTMSISEVSLKDAELMAIEEINNNGGVLGKKLEPIVEDGASDWPTFAEKAKKLLQKDKVAVIFGAWTSASCKAVLPVVEENNGLLFYPVQYEGLESSPNIFYMGAAPNQQIVPAVKWLFDNGKKRFYLLGSDYVFPRTANKIIKAYLKYLGGVVVGEEYTPLGHTDYSSVINKIKAAKPDVVFNTLNGDSNVAFFKQLKDAGIDANTLPVMSVSIAEEEIKGIGPEYLKGHLVTWNYFQSVDTPENKEFVEKYKKKYGEDRVTDDPIEAAYIGVYLWAKAVEKAGSTDVDKVREAAKGIEFNAPEGPVKIDGDNQHLYKTVRIGEILENGQIRELWKTNKPVKPDPYLKGYEWAQGLSEQGGSHHHHHH | y | y | ratiometric response to urea ([2]; Acrylodan and Badan conjugates screened): good ratiometric responses; Acrylodan Intensity ([2]; csUBP7 Acrylodan conjugate, emission intensity change on urea): −; Acrylodan Shape ([2]; csUBP7 Acrylodan conjugate, emission spectrum shape change on urea): m; Acrylodan Dipoles ([2]; csUBP7 Acrylodan conjugate, estimated change in populations of major emission bands): b (blue, (maxima <500 nm)); Kd ([2]; csUBP7 Acrylodan conjugate, read-out: Acrylodan ^trueKd): 300 µM; Badan Intensity ([2]; csUBP7 Badan conjugate, emission intensity change on urea): +; Badan Shape ([2]; csUBP7 Badan conjugate, emission spectrum shape change on urea): d; Badan Dipoles ([2]; csUBP7 Badan conjugate, estimated change in populations of major emission bands): g→b; Kd ([2]; csUBP7 Badan conjugate, read-out: Badan ^trueKd): 2200 µM
5 | csUBP7 S238C: csUBP7 238C cysteine mutant (SEQ ID NO: 42), tested as Acrylodan and Badan conjugates (conjugate, Acrylodan or Badan conjugate; csUBP7_238C (238C substitution mutant with signal peptide replaced with M and a GGSHHHHHH at C-terminus, and also comprising a C89A substitution)) MSSSESEKEKSEETIKVGILHSLSGTMSISEVSLKDAELMAIEEINNNGGVLGKKLEPIVEDGASDWPTFAEKAKKLLQKDKVAVIFGAWTSASRKAVLPVVEENNGLLFYPVQYEGLESSPNIFYMGAAPNQQIVPAVKWLFDNGKKRFYLLGSDYVFPRTANKIIKAYLKYLGGVVVGEEYTPLGHTDYSSVINKIKAAKPDVVFNTLNGDSNVAFFKQLKDAGIDANTLPVMSVCIAEEEIKGIGPEYLKGHLVTWNYFQSVDTPENKEFVEKYKKKYGEDRVTDDPIEAAYIGVYLWAKAVEKAGSTDVDKVREAAKGIEFNAPEGPVKIDGDNQHLYKTVRIGEILENGQIRELWKTNKPVKPDPYLKGYEWAQGLSEQGGSHHHHHH | n | n | 
6 | csUBP7 V158C: csUBP7 158C cysteine mutant (SEQ ID NO: 38), tested as Acrylodan and Badan conjugates (conjugate, Acrylodan or Badan conjugate; csUBP7_158C (158C substitution mutant with signal peptide replaced with M and a GGSHHHHHH at C-terminus, and also comprising a C89A substitution)) MSSSESEKEKSEETIKVGILHSLSGTMSISEVSLKDAELMAIEEINNNGGVLGKKLEPIVEDGASDWPTFAEKAKKLLQKDKVAVIFGAWTSASRKAVLPVVEENNGLLFYPVQYEGLESSPNIFYMGAAPNQQIVPAVKWLFDNGKKRFYLLGSDYCFPRTANKIIKAYLKYLGGVVVGEEYTPLGHTDYSSVINKIKAAKPDVVFNTLNGDSNVAFFKQLKDAGIDANTLPVMSVSIAEEEIKGIGPEYLKGHLVTWNYFQSVDTPENKEFVEKYKKKYGEDRVTDDPIEAAYIGVYLWAKAVEKAGSTDVDKVREAAKGIEFNAPEGPVKIDGDNQHLYKTVRIGEILENGQIRELWKTNKPVKPDPYLKGYEWAQGLSEQGGSHHHHHH | n | n | 
7 | csUBP7 F159C: csUBP7 159C cysteine mutant (SEQ ID NO: 39), tested as Acrylodan and Badan conjugates (conjugate, Acrylodan or Badan conjugate; csUBP7_159C (159C substitution mutant with signal peptide replaced with M and a GGSHHHHHH at C-terminus, and also comprising a C89A substitution)) MSSSESEKEKSEETIKVGILHSLSGTMSISEVSLKDAELMAIEEINNNGGVLGKKLEPIVEDGASDWPTFAEKAKKLLQKDKVAVIFGAWTSASRKAVLPVVEENNGLLFYPVQYEGLESSPNIFYMGAAPNQQIVPAVKWLFDNGKKRFYLLGSDYVCPRTANKIIKAYLKYLGGVVVGEEYTPLGHTDYSSVINKIKAAKPDVVFNTLNGDSNVAFFKQLKDAGIDANTLPVMSVSIAEEEIKGIGPEYLKGHLVTWNYFQSVDTPENKEFVEKYKKKYGEDRVTDDPIEAAYIGVYLWAKAVEKAGSTDVDKVREAAKGIEFNAPEGPVKIDGDNQHLYKTVRIGEILENGQIRELWKTNKPVKPDPYLKGYEWAQGLSEQGGSHHHHHH | n | n | 

— patent US11906524B2, “Urea biosensors and uses thereof” (Duke University, priority 2015, dated 2024)
